T1: AMPylated GlnA (glutamine synthetase), recombinant (E. coli, UniProt P0A9C5 1-469, AMPylated tyrosine at 398 (Tyr398-AMP))
T1 construct: glutamine synthetase GlnA, cloned in ppSumo; Species is stated for GlnA in general (E. coli), not for the ppSumo construct; also called GlnA-AMP; copies: 12
T1 sequence: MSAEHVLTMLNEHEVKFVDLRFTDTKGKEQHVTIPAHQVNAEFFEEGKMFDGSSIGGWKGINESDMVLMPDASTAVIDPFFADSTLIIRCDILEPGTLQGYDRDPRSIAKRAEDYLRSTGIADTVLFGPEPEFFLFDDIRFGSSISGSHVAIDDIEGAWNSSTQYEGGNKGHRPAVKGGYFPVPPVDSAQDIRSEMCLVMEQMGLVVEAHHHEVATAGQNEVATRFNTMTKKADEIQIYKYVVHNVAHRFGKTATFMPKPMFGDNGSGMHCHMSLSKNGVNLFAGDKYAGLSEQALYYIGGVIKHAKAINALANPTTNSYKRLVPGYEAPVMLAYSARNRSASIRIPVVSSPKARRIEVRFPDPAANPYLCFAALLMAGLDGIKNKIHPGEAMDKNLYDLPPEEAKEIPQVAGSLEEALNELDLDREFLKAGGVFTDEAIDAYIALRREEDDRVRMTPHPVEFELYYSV

T2: AMPylated sucA (UniProt P0AFG3 1-933, multiple AMPylation sites, residues not given)
T2 construct: sucA, model AMPylated substrate of E. coli SelO; also called sucA-AMP; SucA-AMP; source: E. coli BL21, co-expressed with SelO V242A (pETDuet), purified (Ni-NTA)
T2 sequence (looked up): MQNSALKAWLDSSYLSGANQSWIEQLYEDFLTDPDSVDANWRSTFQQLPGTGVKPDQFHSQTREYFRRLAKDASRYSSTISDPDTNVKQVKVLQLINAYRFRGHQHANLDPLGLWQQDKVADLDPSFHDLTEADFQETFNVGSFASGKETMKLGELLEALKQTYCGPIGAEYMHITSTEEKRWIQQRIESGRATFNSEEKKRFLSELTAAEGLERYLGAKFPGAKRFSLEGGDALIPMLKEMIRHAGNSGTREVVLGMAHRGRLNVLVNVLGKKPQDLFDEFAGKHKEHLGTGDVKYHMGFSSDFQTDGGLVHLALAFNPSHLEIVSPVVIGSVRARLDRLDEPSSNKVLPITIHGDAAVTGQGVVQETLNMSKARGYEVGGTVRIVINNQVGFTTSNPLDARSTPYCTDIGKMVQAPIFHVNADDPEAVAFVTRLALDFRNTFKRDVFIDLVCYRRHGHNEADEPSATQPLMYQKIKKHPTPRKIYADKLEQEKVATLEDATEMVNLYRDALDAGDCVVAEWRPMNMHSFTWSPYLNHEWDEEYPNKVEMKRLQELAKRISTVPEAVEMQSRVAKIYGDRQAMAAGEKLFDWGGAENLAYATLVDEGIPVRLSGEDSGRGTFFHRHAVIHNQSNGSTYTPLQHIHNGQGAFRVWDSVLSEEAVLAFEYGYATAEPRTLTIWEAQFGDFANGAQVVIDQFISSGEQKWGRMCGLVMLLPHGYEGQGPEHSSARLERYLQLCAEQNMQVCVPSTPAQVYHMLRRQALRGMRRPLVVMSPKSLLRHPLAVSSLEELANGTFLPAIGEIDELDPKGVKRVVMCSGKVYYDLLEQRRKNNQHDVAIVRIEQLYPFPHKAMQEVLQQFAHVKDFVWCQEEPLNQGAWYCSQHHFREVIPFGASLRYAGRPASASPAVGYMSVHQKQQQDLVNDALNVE


Tests used:
[1] = target: T1, AMPylated GlnA (glutamine synthetase), …; assay: far-Western, overlay or dot blot; dot blot: 400 ng to 25 ng of AMPylated or non-AMPylated protein spotted on nitrocellulose, probed with GST or GST-hinT at 0.125 μg/mL in TBST for 1 h, detected with α-GST; details: both partners purified
AMPylated sucA = target: T2, AMPylated sucA; assay: BLI; GST-hinT (90 nM) immobilised on anti-GST biosensors; sucA-AMP 500 to 7.81 nM, unmodified sucA at 500 nM; 10 mM Tris pH 8, 150 mM NaCl, 0.1% Triton X-100; KD from steady-state responses, one site; details: both partners purified
[2] = target: the molecule itself; assay: cryo-EM structure; GlnA (4.68 mg/ml) mixed with hinT (3.29 mg/ml), 1:3 molar ratio of monomers; 10 mM Tris pH 8, 150 mM NaCl, 2 mM DTT

Binder	binding result [1]	Kd (AMPylated sucA)	stoichiometry N [2]
GST-tagged E. coli hinT H101N E96S (enzyme, UniProt P0ACE7 1-119, looked up, E. coli hinT in pGEX-rTEV, E96S made by site directed mutagenesis on the H101N form; also called GST-Ec hinT^(HN, E96S); GST-Ec hinT^E96S; not shown: GST, N-terminal, kept) MAEETIFSKIIRREIPSDIVYQDDLVTAFRDISPQAPTHILIIPNILIPTVNDVSAEHEQALGRMITVAAKIAEQEGIAEDGYRLIMNTNRHGGQSVYHINMHLLGGRPLGPMLAHKGL	binds	21 nM	
E. coli hinT H101N (untagged) (enzyme, UniProt P0ACE7 1-119, looked up, open reading frame cloned into pProEx; ATG replaces the endogenous TTG start codon; also called hinT^HN; source: E. coli BL21, purified (Ni-NTA, TEV cleavage, Superdex 75)) MAEETIFSKIIRREIPSDIVYQDDLVTAFRDISPQAPTHILIIPNILIPTVNDVSAEHEQALGRMITVAAKIAEQEGIAEDGYRLIMNTNRHGGQEVYHINMHLLGGRPLGPMLAHKGL			2

Reference: publication PMC12375108, “A repurposed AMP binding domain reveals mitochondrial protein AMPylation as a regulator of cellular metabolism” (Nature Communications, 2025)
